Publication doi:10.1101/2022.08.08.503141 (bioRxiv, 2022)

Target: winged-helix domain 32C of human RPA (residues 172-270 of RPA2) (human, UniProt P15927 172-270)
Assay: NMR titration

Chain of winged-helix domain 32C of human RPA (residues 172-270 of RPA2) (P15927 172-270): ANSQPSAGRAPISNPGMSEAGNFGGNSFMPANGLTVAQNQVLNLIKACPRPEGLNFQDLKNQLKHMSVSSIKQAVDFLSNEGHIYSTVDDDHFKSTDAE

B1: harmonin homology domain 2 (HHD2) of human RTEL1, residues 1056-1140 (domain or fragment)
chain: GQHAVSAYLADARRALGSAGCSQLLAALTAYKQDDDLDKVLAVLAALTTAKPEDFPLLHRFSMFVRPHHKQRFSQTCTDLTGRPY
  binding result: binds
